Assay results: paper PMC8599861, “Structures of prokaryotic ubiquitin-like protein Pup in complex with depupylase Dop reveal the mechanism of catalytic phosphate formation” (Nature Communications, 2021)

Biological target: Prokaryotic ubiquitin-like protein Pup from Corynebacterium glutamicum with C-terminal glutamate (Corynebacterium glutamicum) (UniProt Q8NQE0)
Experiment: ITC; 25 °C, MicroCal iTC200; 150 µM CgluDop or 200 µM CgluDopGS injected into 15 or 20 µM CgluPupE in the cell; 50 mM Tris-HCl pH 8.0, 300 mM NaCl, 20 mM MgCl2; 1:1 binding model

Prokaryotic ubiquitin-like protein Pup from Corynebacterium glutamicum with C-terminal glutamate (Corynebacterium glutamicum), sequence (Q8NQE0 whole entry): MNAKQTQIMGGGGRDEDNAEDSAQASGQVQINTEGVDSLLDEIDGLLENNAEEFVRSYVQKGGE

fold tighter affinity than the wild type enzyme: 2.5 fold
Substance: CgluDopGS, Dop-loop variant of Dop from Corynebacterium glutamicum (Dop-loop H43-I77 replaced with (GS)4) (enzyme)
